Primed or numbered codes have the meaning given here. Where no end group is shown, it is not given here. [ ]: non-standard residue; d: D form. The star is where a group is joined. Psu″ = N-propylsuccinimide on the Cys thiol (Cys(Psu)), CCCN1C(=O)CC(*)C1=O; Psu(3) = N-propylsuccinimide on Cys S, CCCN1C(=O)CC(*)C1=O; Hsu = N-hexylsuccinimide on Cys S, CCCCCCN1C(=O)CC(*)C1=O; Psu = N-propylsuccinimide (on the Cys sulfur); 2Nal = N[C@@H](Cc1ccc2ccccc2c1)C(=O)O; d2Nal = N[C@H](Cc1ccc2ccccc2c1)C(=O)O; Cyclohexanecarbonyl = O=C(C1CCCCC1)*; Myristoyl = CCCCCCCCCCCCCC(=O)*; Cys(Psu) = not defined here; Decanoyl = CCCCCCCCCC(=O)*; Ac6c = NC1(C(=O)O)CCCCC1; Nle = CCCC[C@H](N)C(=O)O; Orn = NCCC[C@H](N)C(=O)O; Hexanoyl = CCCCCC(=O)*; Aib = CC(C)(N)C(=O)O
Target: T1, human recombinant GIP receptor (human, UniProt P48546 22-466)
T1 construct: whole, on cells; Assayed as washed membranes of CHO-K1 cells expressing the receptor; also called hGIP receptor
T1 sequence (looked up): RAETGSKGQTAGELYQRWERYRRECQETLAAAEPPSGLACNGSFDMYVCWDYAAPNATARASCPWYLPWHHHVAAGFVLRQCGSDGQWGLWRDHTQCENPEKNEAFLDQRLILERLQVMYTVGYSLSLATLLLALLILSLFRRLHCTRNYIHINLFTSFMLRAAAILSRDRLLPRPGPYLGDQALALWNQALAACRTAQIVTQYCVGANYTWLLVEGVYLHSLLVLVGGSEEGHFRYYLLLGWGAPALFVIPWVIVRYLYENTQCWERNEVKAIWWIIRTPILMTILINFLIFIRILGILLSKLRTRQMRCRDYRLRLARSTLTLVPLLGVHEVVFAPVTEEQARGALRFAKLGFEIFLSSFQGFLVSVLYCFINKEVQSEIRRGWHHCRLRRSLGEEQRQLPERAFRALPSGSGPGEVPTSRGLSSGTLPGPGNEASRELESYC
Assay: radioligand competition, [125I]GIP on membranes of CHO-K1 cells expressing human GIP receptor

B1: [Ac-A6c^7, Orn^31(N-C(O)-(CH2)12-CH3)]hGIP(7-42)-OH (peptide)
peptide: Ac-[Ac6c]SDYSIAMDKIHQQDFVNWLLAQK[Orn](Myristoyl)KKNDWKHNITQ-OH
notes: Synthetic analogue of human GIP; also called [Ac-Ac6c^7, Orn(N-C(O)-(CH2)12-CH3)^31]hGIP(7-42)-OH
Binder B1 has a Ki of 178 nM.

B2: [Ac-Phe^6, A6c^7, Cys(Psu)^31]hGIP(6-42)-OH (peptide)
peptide: Ac-F[Ac6c]SDYSIAMDKIHQQDFVNWLLAQKC(Psu″)KKNDWKHNITQ-OH
notes: Synthetic analogue of human GIP
B2 showed a Ki of 574 nM.

B3: (Ac-A6c^7, Cys(Psu)^31]hGIP(7-34)-NH2 (peptide)
peptide: XSDYSIAMDKIHQQDFVNWLLAQKCKKN
modifications: N-terminal acetyl (Ac); A6c at 7; Cys(Psu) at 31; hGIP numbering; C-terminal amide
notes: as for B2
Work on B3 yielded a Ki of 115 nM.

B4: [CH3-(CH2)8-C(O)-A6c^7, Orn^34(N-C(O)-(CH2)8-CH3)]hGIP(7-42)-OH (peptide)
peptide: Decanoyl-[Ac6c]SDYSIAMDKIHQQDFVNWLLAQKGKK[Orn](Decanoyl)DWKHNITQ-OH
notes: as for B2
Binder B4 has a Ki of 164 nM.

B5: (Ac-4Hyp^3, A6c^7)hGIP(3-42)-OH (peptide)
peptide: XGTFXSDYSIAMDKIHQQDFVNWLLAQKGKKNDWKHNITQ
modifications: N-terminal acetyl (Ac); 4Hyp (4-hydroxyproline) at 3; A6c at 7; hGIP numbering; C-terminal free acid
notes: as for B2
Binder B5 has a Ki of 546 nM.

B6: (Ac-A6c^7, D-2Nal^31)hGIP(7-42)-OH (peptide)
peptide: Ac-[Ac6c]SDYSIAMDKIHQQDFVNWLLAQK[d2Nal]KKNDWKHNITQ-OH
notes: X stands for the non-natural residues
In the case of B6, the Ki is reported as 159 nM.

B7: [A6c^7, Cys(Psu)^31]hGIP(6-31)-NH2 (peptide)
peptide: FXSDYSIAMDKIHQQDFVNWLLAQKC
modifications: A6c at 7; Cys(Psu) at 31; hGIP numbering; C-terminal amide
notes: as for B2
With B7 the Ki was 101 nM.

B8: (Ac-Phe^6, A6c^7)hGIP(6-30)-NH2 (peptide)
peptide: FXSDYSIAMDKIHQQDFVNWLLAQK
modifications: N-terminal acetyl (Ac) on Phe 6; A6c at 7; hGIP numbering; C-terminal amide
notes: as for B2
B8 was tested, and the Ki was 68.5 nM.

B9: [A6c^7, Cys(Hsu)^31]hGIP(7-42)-OH (peptide)
peptide: [Ac6c]SDYSIAMDKIHQQDFVNWLLAQKC(Hsu)KKNDWKHNITQ-OH
notes: as for B2
B9 showed a Ki of 772 nM.

B10: (Aib^11, Nle^14)hGIP(6-30)-NH2 (peptide)
peptide: FISDY[Aib]IA[Nle]DKIHQQDFVNWLLAQK-NH2
notes: as for B2
In the case of B10, the Ki is reported as 170 nM.

B11: (A5c^7, Nle^14)hGIP(6-30)-NH2 (peptide)
peptide: FXSDYSIAXDKIHQQDFVNWLLAQK
modifications: A5c (1-amino-1-cyclopentanecarboxylic acid) at 7; Nle (norleucine) at 14; hGIP numbering; C-terminal amide
notes: as for B2
Work on B11 yielded a Ki of 734 nM.

B12: (Ac-A6c^7, 2Nal^31)hGIP(7-42)-OH (peptide)
peptide: Ac-[Ac6c]SDYSIAMDKIHQQDFVNWLLAQK[2Nal]KKNDWKHNITQ-OH
notes: as for B2
B12 was tested, and the Ki was 194 nM.

B13: [Ac-Phe^6, A6c^7, Cys(Psu)^31]hGIP(6-31)-NH2 (peptide)
peptide: FXSDYSIAMDKIHQQDFVNWLLAQKC
modifications: N-terminal acetyl (Ac) on Phe 6; A6c at 7; Cys(Psu) at 31; hGIP numbering; C-terminal amide
notes: as for B2
With B13 the Ki was 77.5 nM.

B14: [Chc-Ser^8, Cys(Psu)^31]hGIP(8-42)-OH (peptide)
peptide: Cyclohexanecarbonyl-SDYSIAMDKIHQQDFVNWLLAQK[Cys(Psu)]KKNDWKHNITQ-OH
modifications: reading uncertain
notes: as for B2
For B14, the Ki was 403 nM.

B15: [A6c^7, Orn^34(N-C(O)-(CH2)8-CH3)]hGIP(7-42)-OH (peptide)
peptide: [Ac6c]SDYSIAMDKIHQQDFVNWLLAQKGKK[Orn](Decanoyl)DWKHNITQ-OH
notes: as for B2
B15 showed a Ki of 274 nM.

B16: [Ac-Asp^9, Cys(Psu)^33]hGIP(9-42)-OH (peptide)
peptide: Ac-DYSIAMDKIHQQDFVNWLLAQKGK[Cys(Psu)]NDWKHNITQ-OH
modifications: reading uncertain
notes: as for B2
With B16 the Ki was 472 nM.

B17: (4Hppa^2, 4Hyp^3, A6c^7)hGIP(2-42)-OH (peptide)
peptide: XXGTFXSDYSIAMDKIHQQDFVNWLLAQKGKKNDWKHNITQ
modifications: 4Hppa (3-(4-hydroxyphenyl)propionic acid) at 2; 4Hyp at 3; A6c at 7; hGIP numbering; C-terminal free acid
notes: as for B2
In the case of B17, the Ki is reported as 294 nM.

B18: (4Hppa^2, Pro^3, Nle^14)hGIP(2-42)-OH (peptide)
peptide: XPGTFISDYSIAXDKIHQQDFVNWLLAQKGKKNDWKHNITQ
modifications: 4Hppa at 2; Pro at 3; Nle at 14; hGIP numbering; C-terminal free acid
notes: as for B2
B18 showed a Ki of 800 nM.

B19: (4Hppa^2, A6c^11)hGIP(2-42)-OH (peptide)
peptide: XEGTFISDYXIAMDKIHQQDFVNWLLAQKGKKNDWKHNITQ
modifications: 4Hppa at 2; A6c at 11; hGIP numbering; C-terminal free acid
notes: as for B2
B19 showed a Ki of 91.8 nM.

B20: (4Hppa^2, Aib^13)hGIP(2-42)-OH) (peptide)
peptide: XEGTFISDYSIXMDKIHQQDFVNWLLAQKGKKNDWKHNITQ
modifications: 4Hppa at 2; Aib at 13; hGIP numbering; C-terminal free acid
notes: as for B2
For B20, the Ki was 12.9 nM.

B21: (4Hppa^2, A6c^14)hGIP(2-42)-OH (peptide)
peptide: XEGTFISDYSIAXDKIHQQDFVNWLLAQKGKKNDWKHNITQ
modifications: 4Hppa at 2; A6c at 14; hGIP numbering; C-terminal free acid
notes: as for B2
B21 gave a Ki of 50.4 nM.

B22: [A6c^7, Cys(Psu)^31]hGIP(6-42)-OH (peptide)
peptide: F[Ac6c]SDYSIAMDKIHQQDFVNWLLAQKC(Psu(3))KKNDWKHNITQ-OH
notes: as for B2
B22 showed a Ki of 277 nM.

B23: [Ac-A6c^7, Cys(Psu)^31]hGIP(7-42)-OH (peptide)
peptide: Ac-[Ac6c]SDYSIAMDKIHQQDFVNWLLAQKC(Psu(3))KKNDWKHNITQ-OH
notes: as for B2
With B23 the Ki was 963 nM.

B24: [Ac-A6c^7, Cys(Psu)^32]hGIP(7-42)-OH (peptide)
peptide: Ac-[Ac6c]SDYSIAMDKIHQQDFVNWLLAQKGC(Psu)KNDWKHNITQ-OH
notes: as for B2
Binder B24 has a Ki of 687 nM.

B25: [Ac-A6c^7, Cys(Psu)^39]hGIP(7-42)-OH (peptide)
peptide: Ac-[Ac6c]SDYSIAMDKIHQQDFVNWLLAQKGKKNDWKHC(Psu″)ITQ-OH
notes: as for B2
With B25 the Ki was 75.7 nM.

B26: [Ac-A6c^7, Cys(Psu)^40]hGIP(7-42)-OH (peptide)
peptide: Ac-[Ac6c]SDYSIAMDKIHQQDFVNWLLAQKGKKNDWKHNC(Psu″)TQ-OH
notes: as for B2
B26 was tested, and the Ki was 532 nM.

B27: [Ac-A6c^7, Cys(Psu)^36]hGIP(7-42)-OH (peptide)
peptide: Ac-[Ac6c]SDYSIAMDKIHQQDFVNWLLAQKGKKNDC(Psu)KHNITQ-OH
notes: as for B2
With B27 the Ki was 442 nM.

B28: [Ac-A6c^7, Cys(Psu)^38]hGIP(7-42)-OH (peptide)
peptide: Ac-[Ac6c]SDYSIAMDKIHQQDFVNWLLAQKGKKNDWKC(Psu″)NITQ-OH
notes: as for B2
B28 gave a Ki of 333 nM.

B29: [Ac-A6c^7, Cys(Psu)^35]hGIP(7-42)-OH (peptide)
peptide: Ac-[Ac6c]SDYSIAMDKIHQQDFVNWLLAQKGKKNC(Psu)WKHNITQ-OH
notes: as for B2
B29 showed a Ki of 486 nM.

B30: [Ac-A6c^7, Cys(Psu)^37]hGIP(7-42)-OH (peptide)
peptide: Ac-[Ac6c]SDYSIAMDKIHQQDFVNWLLAQKGKKNDWC(Psu″)HNITQ-OH
notes: as for B2
B30 showed a Ki of 127 nM.

B31: [Ac-A6c^7, Cys(Psu)^34]hGIP(7-42)-OH (peptide)
peptide: Ac-[Ac6c]SDYSIAMDKIHQQDFVNWLLAQKGKKC(Psu)DWKHNITQ-OH
notes: as for B2
B31 gave a Ki of 735 nM.

B32: [Ac-A6c^7, Cys(Psu)^33]hGIP(7-42)-OH (peptide)
peptide: Ac-[Ac6c]SDYSIAMDKIHQQDFVNWLLAQKGKC(Psu)NDWKHNITQ-OH
notes: as for B2
Work on B32 yielded a Ki of 417 nM.

B33: (Ac-A6c^7, Gln^43)hGIP(7-43)-OH (peptide)
peptide: XSDYSIAMDKIHQQDFVNWLLAQKGKKNDWKHNITQQ
modifications: N-terminal acetyl (Ac); A6c at 7; added Gln at 43; hGIP numbering; C-terminal free acid
notes: Synthetic analogue of human GIP with an added residue 43
B33 showed a Ki of 7.92 nM.

B34: (A6c^7, Nle^14)hGIP(6-30)-NH2 (peptide)
peptide: FXSDYSIAXDKIHQQDFVNWLLAQK
modifications: A6c at 7; Nle at 14; hGIP numbering; C-terminal amide
notes: as for B2
For B34, the Ki was 212 nM.

B35: [CH3-(CH2)4-C(O)-Ser^8, Cys(Psu)^31]hGIP(8-42)-OH (peptide)
peptide: Hexanoyl-SDYSIAMDKIHQQDFVNWLLAQK[Cys(Psu)]KKNDWKHNITQ-OH
modifications: reading uncertain
notes: as for B2
B35 gave a Ki of 205 nM.

B36: [Ac-A6c^7, Cys(Psu)^31]hGIP(7-31)-NH2 (peptide)
peptide: XSDYSIAMDKIHQQDFVNWLLAQKC
modifications: N-terminal acetyl (Ac); A6c at 7; Cys(Psu) at 31; hGIP numbering; C-terminal amide
notes: as for B2
In the case of B36, the Ki is reported as 48.3 nM.
